This is an account of results in publication PMC11538506.

This data set concerns the target DDX3X WT (MBP) (UniProt O00571 1-662). Nature of the data set: time-resolved fluorescence anisotropy. In general terms: Polarisation of emitted light reports the rotation of a fluorescent probe.

Sequence of DDX3X WT (MBP) (O00571 whole entry): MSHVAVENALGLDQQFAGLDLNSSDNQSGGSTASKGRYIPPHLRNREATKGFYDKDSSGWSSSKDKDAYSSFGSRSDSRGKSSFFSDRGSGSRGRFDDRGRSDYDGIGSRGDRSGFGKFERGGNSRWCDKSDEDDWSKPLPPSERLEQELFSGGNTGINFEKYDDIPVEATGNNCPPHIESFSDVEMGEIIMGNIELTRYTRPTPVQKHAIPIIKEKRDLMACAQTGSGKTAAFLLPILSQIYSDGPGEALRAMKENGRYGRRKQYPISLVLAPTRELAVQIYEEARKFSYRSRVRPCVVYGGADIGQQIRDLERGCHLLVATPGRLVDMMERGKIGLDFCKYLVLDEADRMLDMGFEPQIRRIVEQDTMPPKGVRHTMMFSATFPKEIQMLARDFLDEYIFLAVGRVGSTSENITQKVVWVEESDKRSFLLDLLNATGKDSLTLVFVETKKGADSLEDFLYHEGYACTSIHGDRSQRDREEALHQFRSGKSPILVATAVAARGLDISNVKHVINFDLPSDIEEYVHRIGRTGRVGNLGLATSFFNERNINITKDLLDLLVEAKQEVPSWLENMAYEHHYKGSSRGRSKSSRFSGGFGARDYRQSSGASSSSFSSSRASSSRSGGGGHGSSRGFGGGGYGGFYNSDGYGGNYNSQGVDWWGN

B1: dsRNA anisotropy probe (18/42-mer) (dsRNA)
RNA 1: ACCGCUGCCGUCGCUCCG
RNA 2: UUUUUUUUUUUUUUUUUUUUUUUUCGGAGCGACGGCAGCGGU
Take B1: the binding result is listed as “binds”.
